Assay results taken from article PMC7066533 (Frontiers in Pharmacology, 2020).
Square brackets hold non-standard residues; d marks the D form. βAla = NCCC(=O)O

What was measured:
human mu opioid receptor = molecular target: T1, human mu opioid receptor (human, UniProt P35372 1-400); assay: radioligand binding; displacement of 2.5 nM [3H]DAMGO (MOPr), 2 nM [3H]diprenorphine (DOPr) or 1 nM [3H]U69,593 (KOPr) from membranes of receptor-expressing HEK-293 cells; 25°C, 90 min, 100 mM Tris-HCl, 0.3% BSA; competitor 10^-12 to 10^-4 M; Ki from IC50 by Cheng-Prusoff; details: one partner purified
T1 construct: human mu opioid receptor, stably expressed in HEK-293 cells; membrane preparations used; also called hMOPr; MOPr; source: HEK-293 cells stably expressing hMOPr, cell membranes

[1] = molecular target: T2, human kappa opioid receptor (human, UniProt P41145 1-380); assay: as above; details: one partner purified
T2 construct: human kappa opioid receptor, stably expressed in HEK-293 cells; Functional rows in U87-MG cells and normal human astrocytes (endogenous human KOPr) are also written on this molecule; also called hKOPr; KOPr

[2] = molecular target: T3, human delta opioid receptor (human, UniProt P41143 1-372); assay: as above; details: one partner purified
T3 construct: human delta opioid receptor, stably expressed in HEK-293 cells; membrane preparations used; also called hDOPr; DOPr; source: HEK-293 cells stably expressing hDOPr, cell membranes

[3] = molecular target: T2, human kappa opioid receptor; assay: cell-based or functional assay

cyclo(FG[βAla][dW]) (SMILES O=C1CNC(=O)[C@H](Cc2ccccc2)NC(=O)[C@@H](Cc2c[nH]c3ccccc23)NC(=O)CCN1) [LOR17 (c[Phe-Gly-(β-Ala)-D-Trp])]
Ki (human mu opioid receptor): > 100000 nM
Ki [1]: 1.19 nM
Ki [2]: > 100000 nM
IC50 of inhibition of forskolin-induced cAMP accumulation, HEK-293/KOR cells [3]: 2.8 nM
IC50 of inhibition of forskolin-induced cAMP accumulation, U87-MG cells (endogenous KOPr) [3]: 3.1 nM
IC50 of inhibition of forskolin-induced cAMP accumulation, normal human astrocytes (endogenous KOPr) [3]: 3 nM
